Target: M2pd (modified M2 containing amino acids from Ala-8p to Ala326) (human) (UniProt P56817)
Assay: cell-based or functional assay

M2pd (modified M2 containing amino acids from Ala-8p to Ala326) (human), sequence (P56817 22-501 limits assumed): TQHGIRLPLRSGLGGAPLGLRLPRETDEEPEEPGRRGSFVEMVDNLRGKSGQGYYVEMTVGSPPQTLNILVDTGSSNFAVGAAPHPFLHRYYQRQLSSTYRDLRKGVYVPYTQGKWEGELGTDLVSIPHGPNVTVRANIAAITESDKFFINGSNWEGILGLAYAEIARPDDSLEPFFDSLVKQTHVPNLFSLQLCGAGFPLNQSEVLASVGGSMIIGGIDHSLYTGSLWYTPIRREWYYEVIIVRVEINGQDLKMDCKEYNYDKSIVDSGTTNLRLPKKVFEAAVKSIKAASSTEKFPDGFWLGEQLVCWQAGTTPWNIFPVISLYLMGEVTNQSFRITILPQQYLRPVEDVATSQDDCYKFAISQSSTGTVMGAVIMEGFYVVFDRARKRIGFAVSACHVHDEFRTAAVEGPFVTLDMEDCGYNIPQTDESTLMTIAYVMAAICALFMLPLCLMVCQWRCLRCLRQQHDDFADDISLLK

Pepstatin A (peptide)
IC50 of inhibition of enzyme activity: 300 µM

Reference: patent US20040220079A1
